From patent publication EP4477673A1, “IMMUNOCONJUGATE AND USE THEREOF” (priority 2022, dated 2023)

B1: A-N88D-M08 (Fc fusion)
chain (part 1 of 2): EVQLVESGGGLVQPGGSLRLSCAASGLTFSDYSMSWYRQAPGKGRELVAIISGSGVITHYVDSVKGRFTISRDNAKNTLYLQMRSLRAEDTAVYYCRAVSDWQDYWGQGTQVTVSS
chain (part 2 of 2): GGGGSGGGGSGGGGSAPASSSTKKTQLQLEHLLLDLQMILQGISNYKNPKLTRMLTAKFYMPKKATELKHLQCLEEELKPLEEVLQGAQSKNFHLRPRDLISDINVIVLELKGSETTFMCEYADETATIVEFLNRWITFAQSIISTLT
chain: EVQLVESGGGLVQPGGSLRLSCAASGLTFSDYSMSWYRQAPGKGRELVAIISGSGVITHYVDSVKGRFTISRDNAKNTLYLQMRSLRAEDTAVYYCRAVSDWQDYWGQGTQVTVSS
notes: also called A-N88D-M8; not shown: IgG1 hinge (C220S) + Fc Knob chain as in A-N88D; IgG1 hinge (C220S) + Fc Hole chain as in A-N88D
B2: A-N88D-M15 (Fc fusion)
chain (part 1 of 2): EVQLVESGGGLVQPGGSLRLSCAASGLTFSDYSMSWYRQAPGKGRELVAIISGSGGITHYVDSVKGRFTISRDNAKNTLYLQMRSLRAEDTAVYYCRAVSDWEDYWGQGTQVTVSS
chain (part 2 of 2): GGGGSGGGGSGGGGSAPASSSTKKTQLQLEHLLLDLQMILQGISNYKNPKLTRMLTAKFYMPKKATELKHLQCLEEELKPLEEVLQGAQSKNFHLRPRDLISDINVIVLELKGSETTFMCEYADETATIVEFLNRWITFAQSIISTLT
chain: EVQLVESGGGLVQPGGSLRLSCAASGLTFSDYSMSWYRQAPGKGRELVAIISGSGGITHYVDSVKGRFTISRDNAKNTLYLQMRSLRAEDTAVYYCRAVSDWEDYWGQGTQVTVSS
notes: not shown: IgG1 hinge (C220S) + Fc Knob chain as in A-N88D; IgG1 hinge (C220S) + Fc Hole chain as in A-N88D
B3: A-N88D-M27 (Fc fusion)
chain (part 1 of 2): EVQLVESGGGLVQPGGSLRLSCAASGLTFSSYSMSWYRQAPGKGRELVAIISGSGGITHYVDSVKGRFTISRDNAKNTLYLQMRSLRAEDTAVYYCRAVSDWQDYWGQGTQVTVSS
chain (part 2 of 2): GGGGSGGGGSGGGGSAPASSSTKKTQLQLEHLLLDLQMILQGISNYKNPKLTRMLTAKFYMPKKATELKHLQCLEEELKPLEEVLQGAQSKNFHLRPRDLISDINVIVLELKGSETTFMCEYADETATIVEFLNRWITFAQSIISTLT
chain: EVQLVESGGGLVQPGGSLRLSCAASGLTFSSYSMSWYRQAPGKGRELVAIISGSGGITHYVDSVKGRFTISRDNAKNTLYLQMRSLRAEDTAVYYCRAVSDWQDYWGQGTQVTVSS
notes: as for B2
B4: A-N88D-M28 (Fc fusion)
chain (part 1 of 2): EVQLVESGGGLVQPGGSLRLSCAASGLTFSSYSMSWYRQAPGKGRELVAIISGSGGITHYADSVKGRFTISRDNAKNTLYLQMRSLRAEDTAVYYCRAVSDWQDYWGQGTQVTVSS
chain (part 2 of 2): GGGGSGGGGSGGGGSAPASSSTKKTQLQLEHLLLDLQMILQGISNYKNPKLTRMLTAKFYMPKKATELKHLQCLEEELKPLEEVLQGAQSKNFHLRPRDLISDINVIVLELKGSETTFMCEYADETATIVEFLNRWITFAQSIISTLT
chain: EVQLVESGGGLVQPGGSLRLSCAASGLTFSSYSMSWYRQAPGKGRELVAIISGSGGITHYADSVKGRFTISRDNAKNTLYLQMRSLRAEDTAVYYCRAVSDWQDYWGQGTQVTVSS
notes: as for B2
B5: A-N88D-M26 (Fc fusion)
chain (part 1 of 2): EVQLVESGGGLVQPGGSLRLSCAASGLTFSSYSMSWYRQAPGKGRELVAIISGSGGITHYVDSVKGRFTISRDNAKNTLYLQMRSLRAEDTAVYYCRAVSDWEDYWGQGTQVTVSS
chain (part 2 of 2): GGGGSGGGGSGGGGSAPASSSTKKTQLQLEHLLLDLQMILQGISNYKNPKLTRMLTAKFYMPKKATELKHLQCLEEELKPLEEVLQGAQSKNFHLRPRDLISDINVIVLELKGSETTFMCEYADETATIVEFLNRWITFAQSIISTLT
chain: EVQLVESGGGLVQPGGSLRLSCAASGLTFSSYSMSWYRQAPGKGRELVAIISGSGGITHYVDSVKGRFTISRDNAKNTLYLQMRSLRAEDTAVYYCRAVSDWEDYWGQGTQVTVSS
notes: as for B2

Assays:
human PD-1 = human PD-1 (human, UniProt Q15116 25-288); test: cell-based or functional assay
[1] = target: Human PD-1 antigen protein (Sino Biological, 10377-H08H) (human, UniProt Q15116 25-167); test: SPR Biacore 8K, fusion protein captured by anti-human IgG (Fc), human PD-1 as analyte
Human PD-1 antigen protein (Sino Biological, 10377-H08H), sequence (Q15116 25-167 limits assumed): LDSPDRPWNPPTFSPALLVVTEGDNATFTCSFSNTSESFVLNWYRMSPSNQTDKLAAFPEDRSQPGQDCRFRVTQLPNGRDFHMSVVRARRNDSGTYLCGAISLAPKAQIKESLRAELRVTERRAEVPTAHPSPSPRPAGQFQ

human PD-1, sequence (Q15116 25-288 limits assumed): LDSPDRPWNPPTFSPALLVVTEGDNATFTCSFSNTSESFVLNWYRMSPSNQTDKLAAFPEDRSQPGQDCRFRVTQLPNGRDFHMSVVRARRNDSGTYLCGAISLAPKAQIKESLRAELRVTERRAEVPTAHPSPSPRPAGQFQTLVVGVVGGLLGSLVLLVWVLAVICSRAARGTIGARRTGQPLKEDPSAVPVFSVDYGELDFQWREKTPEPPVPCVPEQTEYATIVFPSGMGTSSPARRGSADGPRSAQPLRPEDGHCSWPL

Row | M07e-hPD-1 cell proliferation ratio (%) at 0.0001 nM (human PD-1) | M07e-hPD-1 cell proliferation ratio (%) at 0.001 nM (human PD-1) | M07e-hPD-1 cell proliferation ratio (%) at 0.01 nM (human PD-1) | M07e-hPD-1 cell proliferation ratio (%) at 0.1 nM (human PD-1) | M07e-hPD-1 cell proliferation ratio (%) at 1 nM (human PD-1) | M07e-hPD-1 cell proliferation ratio (%) at 10 nM (human PD-1) | M07e-hPD-1 cell proliferation ratio (%) at 100 nM (human PD-1) | M07e-hPD-1 cell proliferation ratio (%) at 1000 nM (human PD-1) | Kd [1] | koff [1] | kon [1] | Binder
1 | 3.8% | 4.5% | 11.9% | 27.3% | 36% | 35.5% | 35.5% | 44.2% | 12.3 nM | 0.00264 s⁻¹ | 215000 M⁻¹ s⁻¹ | B1
2 | 8.9% | 4.1% | 7% | 17% | 32.9% | 41.6% | 54.9% | 47.7% | 29.3 nM | 0.00706 s⁻¹ | 241000 M⁻¹ s⁻¹ | B2
3 | 7.5% | 4.9% | 4.9% | 9.3% | 21.1% | 31.9% | 39.5% | 60% | 74.3 nM | 0.0102 s⁻¹ | 137000 M⁻¹ s⁻¹ | B3
4 | 7.2% | 6.3% | 9.4% | 7.6% | 12.4% | 19.1% | 34.4% | 51.3% | 134 nM | 0.0198 s⁻¹ | 148000 M⁻¹ s⁻¹ | B4
5 | 3.7% | 4.8% | 9.3% | 10.7% | 23.2% | 37% | 43.1% | 54.4% | 53.1 nM | 0.00948 s⁻¹ | 179000 M⁻¹ s⁻¹ | B5
